Experiment: In-vivo cis-α-irone production screening of pMT7 and pMT12 mutants
Type: cell-based, Escherichia coli
Settings: mutations made to pMT12; normalized to pMT12 (=1)
From the text: Q60 was identified as another possible mutation site.
FIGS. 24a and 24b show the in-vivo and in-vitro cis-α-irone production of other possible single mutations to pMT12. The in-vitro results in FIG. 24b validate the mutations and in-vivo results in FIG. 24a. The mutations in FIG. 24 include Q11H (SEQ ID No. 23), V12R (SEQ ID No. 24), A95C (SEQ ID No. 25), H123Q (SEQ ID No. 26), E127T (SEQ ID No. 27), M137T (SEQ ID No. 28), D176V (SEQ ID No. 29), D176Y (SEQ ID No. 30). P191S (SEQ ID No. 31), P191V (SEQ ID No. 32), F212L (SEQ ID No. 33), S268H (SEQ ID No. 34), AND T272A (SEQ ID No. 35). The screening results in FIGS. 24 and 25 are semi-quantitative to identify beneficial mutants that give greater than one-fold change of irone production as compared to pMT12.
FIGS. 25a to 25c (and Table 4) show the in-vivo testing results of other possible mutations that may be made to pMT12 to improve its in-vivo production of cis-α-irone. FIGS. 25a to 25c each include two dotted lines to account for a 10% error bar to show the normalized fold change of 0.9 and 1.1.
The four plasmids were transformed into E. coli BL21 (DE3), ΔaroA, ΔaroB, ΔaroC, ΔserC or E. coli BL21 (DE3), ΔaroA, ΔaroB, ΔaroC, ΔserC, ΔmetJ strains and plated on Agar plate containing LB media (10 g, tryptone. 5 g, yeast extract. 10 g, NaCl) supplemented with appropriate antibiotics (100 mg/L ampicillin, 34 mg/L chloramphenicol, 50 mg/L kanamycin, and 100 mg/L spectinomycin). One colony was picked and inoculate into LB media with antibiotics. 1% of overnight culture was inoculated into 1 ml fresh auto-inducing chemically defined media. The chemical media contains carbon source solution: 0.5 g/L glucose, 10 g/L glycerol; inducer: 30 mM lactose and base media: 2 g/L ammonium sulfate, 4.2 g/L KH2PO4, 11.24 g/L K2HPO4, 1.7 g/L citric acid, 0.5 g/L MgSO4, and 10 mL/L trace element solution. The trace element solution (100×) contained 0.25 g/L CoCl2·6H2O, 1.5 g/L MnSO4·4H2O, 0.15 g/L CuSO4·2H2O, 0.3 g/L H3BO3, 0.25 g/L Na2MoO4·2H2O, 0.8 g/L Zn(CH3COO)2, 5 g/L Fe(III) citrate, and 0.84 g/L ethylenediaminetetra-acetic acid (EDTA) at pH 8.0. The culture was grown at 28° C. for 3 days and the products were extracted with 1 ml hexane for GCMS analysis. An example of a fed-batch process for α-ionone Is briefly described, overnight culture was inoculated into 2 L chemical media comprising the base media and 5 g/L glucose, at 37° C. and 30% DO. pH was controlled at 7 with base solution (14% ammonia and 0.5 M NaOH). Feed media (500 g/L glucose and 5 g/L MgSO4) was added into bioreactor once OD600 reached 5, at a rate of 7.15-25.75 g/h glucose for about 4-5 h until OD600 reached ˜30-40. Subsequently, 0.1 mM IPTG was added to induce the production, and feeding rate was kept at a constant rate of 10 g/h glucose, and the temperature was reduced to 30° C. DO was adjusted to 2% or 10%. Feeding was stopped at 113 h when 2 L feeding media was finished, but the culture was further incubated for 24 h. To capture the evaporated products, the exhaust was connected to 25 ml sunflower oil.

B1: V12K (protein)
chain: MPQEARTPQQQKTADEVGDWYDKFGEVYHLTLGESVHCGLWFPPDAPVPQDMELVTMSSQAQDRFTDYLIETLDPKAGQHLLDIGCGTGRPALKAARQRGIAVTGVAVSKEQIAAANRLAAGHGLTERLTFEVADAMRLPYEDESFDCAWAIESLDHMDRAKALGEAWRVLKPGGDLLVAEEVVTEELTEPETALFETLFALNVPPRLGEFFDIVSGAGFHTLSLKDLSADLAMTMNVFALGVYSRRAEFTERFGAEFVDGLLAGLGSAQETVIRKTRFFMATLRKPAV
modifications: Modified from pMT1
Fold change in in-vivo cis-α-irone production: 1.00

B2: P191I (protein)
chain: MPQEARTPQQQVTADEVGDWYDKFGEVYHLTLGESVHCGLWFPPDAPVPQDMELVTMSSQAQDRFTDYLIETLDPKAGQHLLDIGCGTGRPALKAARQRGIAVTGVAVSKEQIAAANRLAAGHGLTERLTFEVADAMRLPYEDESFDCAWAIESLDHMDRAKALGEAWRVLKPGGDLLVAEEVVTEELTEIETALFETLFALNVPPRLGEFFDIVSGAGFHTLSLKDLSADLAMTMNVFALGVYSRRAEFTERFGAEFVDGLLAGLGSAQETVIRKTRFFMATLRKPAV
modifications: Modified from pMT1
Fold change in in-vivo cis-α-irone production: 1.31

B3: V12A (protein)
chain: MPQEARTPQQQATADEVGDWYDKFGEVYHLTLGESVHCGLWFPPDAPVPQDMELVTMSSQAQDRFTDYLIETLDPKAGQHLLDIGCGTGRPALKAARQRGIAVTGVAVSKEQIAAANRLAAGHGLTERLTFEVADAMRLPYEDESFDCAWAIESLDHMDRAKALGEAWRVLKPGGDLLVAEEVVTEELTEPETALFETLFALNVPPRLGEFFDIVSGAGFHTLSLKDLSADLAMTMNVFALGVYSRRAEFTERFGAEFVDGLLAGLGSAQETVIRKTRFFMATLRKPAV
modifications: Modified from pMT1
Fold change in in-vivo cis-α-irone production: 0.97

B4: T126E (protein)
chain: MPQEARTPQQQVTADEVGDWYDKFGEVYHLTLGESVHCGLWFPPDAPVPQDMELVTMSSQAQDRFTDYLIETLDPKAGQHLLDIGCGTGRPALKAARQRGIAVTGVAVSKEQIAAANRLAAGHGLEERLTFEVADAMRLPYEDESFDCAWAIESLDHMDRAKALGEAWRVLKPGGDLLVAEEVVTEELTEPETALFETLFALNVPPRLGEFFDIVSGAGFHTLSLKDLSADLAMTMNVFALGVYSRRAEFTERFGAEFVDGLLAGLGSAQETVIRKTRFFMATLRKPAV
modifications: Modified from pMT1
Fold change in in-vivo cis-α-irone production: 0.88

B5: V12G (protein)
chain: MPQEARTPQQQGTADEVGDWYDKFGEVYHLTLGESVHCGLWFPPDAPVPQDMELVTMSSQAQDRFTDYLIETLDPKAGQHLLDIGCGTGRPALKAARQRGIAVTGVAVSKEQIAAANRLAAGHGLTERLTFEVADAMRLPYEDESFDCAWAIESLDHMDRAKALGEAWRVLKPGGDLLVAEEVVTEELTEPETALFETLFALNVPPRLGEFFDIVSGAGFHTLSLKDLSADLAMTMNVFALGVYSRRAEFTERFGAEFVDGLLAGLGSAQETVIRKTRFFMATLRKPAV
modifications: Modified from pMT1
Fold change in in-vivo cis-α-irone production: 0.97

B6: H123S (protein)
chain: MPQEARTPQQQVTADEVGDWYDKFGEVYHLTLGESVHCGLWFPPDAPVPQDMELVTMSSQAQDRFTDYLIETLDPKAGQHLLDIGCGTGRPALKAARQRGIAVTGVAVSKEQIAAANRLAAGSGLTERLTFEVADAMRLPYEDESFDCAWAIESLDHMDRAKALGEAWRVLKPGGDLLVAEEVVTEELTEPETALFETLFALNVPPRLGEFFDIVSGAGFHTLSLKDLSADLAMTMNVFALGVYSRRAEFTERFGAEFVDGLLAGLGSAQETVIRKTRFFMATLRKPAV
modifications: Modified from pMT1
Fold change in in-vivo cis-α-irone production: 0.84

B7: P191L (protein)
chain: MPQEARTPQQQVTADEVGDWYDKFGEVYHLTLGESVHCGLWFPPDAPVPQDMELVTMSSQAQDRFTDYLIETLDPKAGQHLLDIGCGTGRPALKAARQRGIAVTGVAVSKEQIAAANRLAAGHGLTERLTFEVADAMRLPYEDESFDCAWAIESLDHMDRAKALGEAWRVLKPGGDLLVAEEVVTEELTELETALFETLFALNVPPRLGEFFDIVSGAGFHTLSLKDLSADLAMTMNVFALGVYSRRAEFTERFGAEFVDGLLAGLGSAQETVIRKTRFFMATLRKPAV
modifications: Modified from pMT1
Fold change in in-vivo cis-α-irone production: 1.12

B8: P191Y (protein)
chain: MPQEARTPQQQVTADEVGDWYDKFGEVYHLTLGESVHCGLWFPPDAPVPQDMELVTMSSQAQDRFTDYLIETLDPKAGQHLLDIGCGTGRPALKAARQRGIAVTGVAVSKEQIAAANRLAAGHGLTERLTFEVADAMRLPYEDESFDCAWAIESLDHMDRAKALGEAWRVLKPGGDLLVAEEVVTEELTEYETALFETLFALNVPPRLGEFFDIVSGAGFHTLSLKDLSADLAMTMNVFALGVYSRRAEFTERFGAEFVDGLLAGLGSAQETVIRKTRFFMATLRKPAV
modifications: Modified from pMT1
Fold change in in-vivo cis-α-irone production: 1.29

B9: T126S (protein)
chain: MPQEARTPQQQVTADEVGDWYDKFGEVYHLTLGESVHCGLWFPPDAPVPQDMELVTMSSQAQDRFTDYLIETLDPKAGQHLLDIGCGTGRPALKAARQRGIAVTGVAVSKEQIAAANRLAAGHGLSERLTFEVADAMRLPYEDESFDCAWAIESLDHMDRAKALGEAWRVLKPGGDLLVAEEVVTEELTEPETALFETLFALNVPPRLGEFFDIVSGAGFHTLSLKDLSADLAMTMNVFALGVYSRRAEFTERFGAEFVDGLLAGLGSAQETVIRKTRFFMATLRKPAV
modifications: Modified from pMT1
Fold change in in-vivo cis-α-irone production: 0.96

B10: E127G (protein)
chain: MPQEARTPQQQVTADEVGDWYDKFGEVYHLTLGESVHCGLWFPPDAPVPQDMELVTMSSQAQDRFTDYLIETLDPKAGQHLLDIGCGTGRPALKAARQRGIAVTGVAVSKEQIAAANRLAAGHGLTGRLTFEVADAMRLPYEDESFDCAWAIESLDHMDRAKALGEAWRVLKPGGDLLVAEEVVTEELTEPETALFETLFALNVPPRLGEFFDIVSGAGFHTLSLKDLSADLAMTMNVFALGVYSRRAEFTERFGAEFVDGLLAGLGSAQETVIRKTRFFMATLRKPAV
modifications: Modified from pMT1
Fold change in in-vivo cis-α-irone production: 0.98

B11: T13L (protein)
chain: MPQEARTPQQQVLADEVGDWYDKFGEVYHLTLGESVHCGLWFPPDAPVPQDMELVTMSSQAQDRFTDYLIETLDPKAGQHLLDIGCGTGRPALKAARQRGIAVTGVAVSKEQIAAANRLAAGHGLTERLTFEVADAMRLPYEDESFDCAWAIESLDHMDRAKALGEAWRVLKPGGDLLVAEEVVTEELTEPETALFETLFALNVPPRLGEFFDIVSGAGFHTLSLKDLSADLAMTMNVFALGVYSRRAEFTERFGAEFVDGLLAGLGSAQETVIRKTRFFMATLRKPAV
modifications: Modified from pMT1
Fold change in in-vivo cis-α-irone production: 0.97

B12: P191K (protein)
chain: MPQEARTPQQQVTADEVGDWYDKFGEVYHLTLGESVHCGLWFPPDAPVPQDMELVTMSSQAQDRFTDYLIETLDPKAGQHLLDIGCGTGRPALKAARQRGIAVTGVAVSKEQIAAANRLAAGHGLTERLTFEVADAMRLPYEDESFDCAWAIESLDHMDRAKALGEAWRVLKPGGDLLVAEEVVTEELTEKETALFETLFALNVPPRLGEFFDIVSGAGFHTLSLKDLSADLAMTMNVFALGVYSRRAEFTERFGAEFVDGLLAGLGSAQETVIRKTRFFMATLRKPAV
modifications: Modified from pMT1
Fold change in in-vivo cis-α-irone production: 1.26
